Measured values: patent publication US20250179183A1
pKd: −log10 of the molar value. Like-named read-outs stand apart in the source and are kept apart here.

Experiments:
[1] = molecular target: cynomolgus monkey CD32a (cynomolgus monkey)
[2] = molecular target: cynomolgus monkey CD32b (cynomolgus monkey)
[3] = molecular target: cynomolgus monkey CD32a (cynomolgus monkey); remark: listed apart in the source

Substance: Rituximab (antibody)
- pKd [1]: 5.23
- pKd [2]: 5.84
- pKd [3]: 5.50
